Patent US20260184794A1, “ANTIBODIES AGAINST INTEGRIN ALPHA 11 BETA 1 AND USES THEREOF” (Momenta Pharmaceuticals, Inc., priority 2022, published 2026)

Key:
mouse α11β1 = mouse α11β1 (Mus musculus, UniProt P61622); assay: Cross-reactivity with mouse α11β1 (SPR); type: binding; settings: yes/no
CHO-hu α11 [1] = molecular target: T1, CHO-hu α11 (Homo sapiens, UniProt Q9UKX5); assay: FACS antibody binding to CHO-K1 cells expressing human α11; settings: Table 11, 1994-01-C7 variants, FIG. 4A
T1 construct: expressed in transfected cells; host or cells: CHO-K1
T1 sequence (Q9UKX5 23-1188): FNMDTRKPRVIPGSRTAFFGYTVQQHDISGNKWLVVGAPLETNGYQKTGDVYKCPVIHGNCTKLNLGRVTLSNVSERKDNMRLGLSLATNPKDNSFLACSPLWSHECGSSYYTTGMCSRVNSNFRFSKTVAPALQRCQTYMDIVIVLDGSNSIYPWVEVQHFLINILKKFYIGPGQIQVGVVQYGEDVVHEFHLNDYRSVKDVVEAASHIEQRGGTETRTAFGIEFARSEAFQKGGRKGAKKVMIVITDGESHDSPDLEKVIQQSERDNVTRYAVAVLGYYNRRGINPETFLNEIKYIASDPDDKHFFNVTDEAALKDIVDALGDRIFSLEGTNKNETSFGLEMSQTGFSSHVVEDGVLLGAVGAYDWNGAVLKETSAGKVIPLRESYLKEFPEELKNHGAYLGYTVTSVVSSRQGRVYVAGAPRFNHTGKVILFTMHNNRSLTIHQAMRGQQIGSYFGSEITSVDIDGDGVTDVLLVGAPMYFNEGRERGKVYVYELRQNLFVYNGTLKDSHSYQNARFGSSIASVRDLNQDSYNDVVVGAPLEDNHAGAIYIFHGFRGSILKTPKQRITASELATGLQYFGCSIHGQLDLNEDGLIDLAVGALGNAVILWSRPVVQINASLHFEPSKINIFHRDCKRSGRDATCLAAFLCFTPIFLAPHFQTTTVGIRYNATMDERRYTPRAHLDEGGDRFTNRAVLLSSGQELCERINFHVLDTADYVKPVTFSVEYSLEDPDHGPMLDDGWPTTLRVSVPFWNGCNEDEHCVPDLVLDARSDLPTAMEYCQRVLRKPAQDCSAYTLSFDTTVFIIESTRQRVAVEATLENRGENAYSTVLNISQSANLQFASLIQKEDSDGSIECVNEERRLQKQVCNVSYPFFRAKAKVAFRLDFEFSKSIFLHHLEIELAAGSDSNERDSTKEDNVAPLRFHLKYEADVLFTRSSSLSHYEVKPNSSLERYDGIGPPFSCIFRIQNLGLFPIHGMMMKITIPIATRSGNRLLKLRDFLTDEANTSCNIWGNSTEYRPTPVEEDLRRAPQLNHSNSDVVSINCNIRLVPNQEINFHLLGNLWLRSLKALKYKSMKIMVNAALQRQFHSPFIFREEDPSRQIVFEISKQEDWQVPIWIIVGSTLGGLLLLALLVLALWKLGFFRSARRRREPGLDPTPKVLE
T1 sequence (P05556 21-798 partner): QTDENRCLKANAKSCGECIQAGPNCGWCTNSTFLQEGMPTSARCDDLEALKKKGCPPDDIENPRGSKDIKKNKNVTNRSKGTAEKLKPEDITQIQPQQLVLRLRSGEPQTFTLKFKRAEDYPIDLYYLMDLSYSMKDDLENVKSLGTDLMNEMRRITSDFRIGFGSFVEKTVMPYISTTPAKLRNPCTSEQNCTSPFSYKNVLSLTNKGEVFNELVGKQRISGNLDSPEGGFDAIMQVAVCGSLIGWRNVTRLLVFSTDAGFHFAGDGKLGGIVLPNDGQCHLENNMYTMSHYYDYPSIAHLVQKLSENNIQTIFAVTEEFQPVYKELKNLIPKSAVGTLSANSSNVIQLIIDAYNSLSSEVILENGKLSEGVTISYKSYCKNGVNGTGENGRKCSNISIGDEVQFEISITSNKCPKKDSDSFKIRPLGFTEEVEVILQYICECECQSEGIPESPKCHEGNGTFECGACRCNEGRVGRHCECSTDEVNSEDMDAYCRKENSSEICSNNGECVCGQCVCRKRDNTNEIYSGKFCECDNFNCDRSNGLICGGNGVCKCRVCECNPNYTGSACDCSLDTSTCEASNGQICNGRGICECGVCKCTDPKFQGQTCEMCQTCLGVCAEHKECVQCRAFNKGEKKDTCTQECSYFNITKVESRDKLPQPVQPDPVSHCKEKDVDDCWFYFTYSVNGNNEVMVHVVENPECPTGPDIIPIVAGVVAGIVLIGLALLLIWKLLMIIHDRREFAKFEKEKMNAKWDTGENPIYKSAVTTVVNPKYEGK
Description: 200,000 cells (wild-type CHO-K1 cells or CHO-K1 cells expressing human α11) were incubated with each antibody at desired concentrations in FACS buffer for 30 min at 4° C. Then, the cells were washed with FACS buffer and incubated with secondary antibody at 1:100 dilution for 30 minutes at 4° C. Cells were then washed and fixed with 1% PF A in PBS for 20 minutes at room temperature; washed again and read on a cytometer in FACS buffer.

Pulmonary Myofibroblast = assay: FACS antibody binding to pulmonary myofibroblasts (HPF/MF); design: species or system human; settings: Table 11, 1994-01-C7 variants, FIG. 4B
Description: Human Pulmonary Fibroblasts (ScienCell) were cultured in complete Fibroblast Growth Medium (ScienCell) until 80% confluent in T-150 flasks. Cells were washed and harvested using Accutase. Cells were seeded into T-150 flasks at 7,500 cells/cm^2 in complete FGF and cultured for 72 hours. Cells were then washed and starved in serum reduced medium for 24 hours. After starvation, cells were treated with TGFβ1 (R&D Systems) for 72 hours. Cells were harvested using Accutase and seeded in 96-well conical bottom plates. Cells were blocked with Heat Inactived Fetal Bovine Serum (Gibco) for 30 minutes at 4° C. Cells were then incubated with anti-al I antibodies at the doses described in each figure for 30 minutes at 4° C. A human anti-al I antibody (Creative BioLabs) was included as a positive control as well as the appropriate IgG isotype negative controls. Cells were washed twice and incubated with PE conjugated secondary antibodies specific to the IgG class of the anti-α11 antibodies being tested for 30 minutes at 4° C. Cells were washed twice and fixed in 1% PF A for 30 minutes. Cells were acquired on a FACS Verse […]. Data were analyzed by gating on single cells and determining the geometric Mean Fluorescence Intensity (gMFI) in the PE channel for each sample.

CHO-hu α11 [2] = molecular target: T1, CHO-hu α11; assay: Cell adhesion inhibition on type I collagen (xCelligence); type: cell-based; settings: Table 11, 1994-01-C7 variants, FIG. 4C; read-out: Inhibition of Cell Adhesion IC50
Description: 0.6×10^6 cells/mL were incubated with each antibody at a range of concentrations for 20 minutes at 37° C. E-Plate VIEW 96 PET plate coated with 100 ng/ml type I collagen or PBS overnight at room temperature was blocked in 3% BSA for 1 hour at room temperature. After washing the plate with PBS, cell and antibody mixture was added to the wells and the plate was places into an xCelligence machine. Cell adhesion was recorded over 6 hours. The time point of maximum cell adhesion was used for comparison relative to control.

[3] = system: CHO cell lines expressing α11; assay: Collagen gel contraction assay; type: cell-based
Description: 24-well plates were blocked with 2% BSA in PBS overnight at 37° C. The following day, the plates were washed 3 times with PBS before being used in the assay. Human CHO cell lines expressing all were harvested and resuspended at 1.25×10^6 in ExpiCHO Expression Medium (Gibco™ Cat #A2910002). The collagen gel solution was prepared by diluting 3 mg/mL stock collagen type I (Gibco™ Collagen I Rat Protein, Tail Cat #A1048301) to I mg/mL in the media containing the CHO cells. Sodium hydroxide was added to the solution to neutralize the pH and 400 μL of the collagen solution was added to each well of the 24-well plates. For the wells where the antibodies were included in the collagen gel solution, CHO cells were prepared at 2.5×10^6 and the antibodies were prepared at 2× final concentration in ExpiCHO media. The cells and antibodies were then combined 1:1 before the addition of the stock collagen type I. The gels were allowed to polymerize for 60 minutes at 37° C. Antibodies were added to the ExpiCHO media, which was then layered on top of the polymerized gel ([…]). The gels were incubated for 6 days at 37° C. before gel contraction was quantified. Images of each well were analyzed using Image J and gel contraction was determined as a percentage of the initial gel area.

cell-mu all = molecular target: T2, cell-mu all (Mus musculus, UniProt P61622); assay: Binding to cells expressing mouse α11
T2 construct: expressed in transfected cells
T2 sequence (P61622 23-1188): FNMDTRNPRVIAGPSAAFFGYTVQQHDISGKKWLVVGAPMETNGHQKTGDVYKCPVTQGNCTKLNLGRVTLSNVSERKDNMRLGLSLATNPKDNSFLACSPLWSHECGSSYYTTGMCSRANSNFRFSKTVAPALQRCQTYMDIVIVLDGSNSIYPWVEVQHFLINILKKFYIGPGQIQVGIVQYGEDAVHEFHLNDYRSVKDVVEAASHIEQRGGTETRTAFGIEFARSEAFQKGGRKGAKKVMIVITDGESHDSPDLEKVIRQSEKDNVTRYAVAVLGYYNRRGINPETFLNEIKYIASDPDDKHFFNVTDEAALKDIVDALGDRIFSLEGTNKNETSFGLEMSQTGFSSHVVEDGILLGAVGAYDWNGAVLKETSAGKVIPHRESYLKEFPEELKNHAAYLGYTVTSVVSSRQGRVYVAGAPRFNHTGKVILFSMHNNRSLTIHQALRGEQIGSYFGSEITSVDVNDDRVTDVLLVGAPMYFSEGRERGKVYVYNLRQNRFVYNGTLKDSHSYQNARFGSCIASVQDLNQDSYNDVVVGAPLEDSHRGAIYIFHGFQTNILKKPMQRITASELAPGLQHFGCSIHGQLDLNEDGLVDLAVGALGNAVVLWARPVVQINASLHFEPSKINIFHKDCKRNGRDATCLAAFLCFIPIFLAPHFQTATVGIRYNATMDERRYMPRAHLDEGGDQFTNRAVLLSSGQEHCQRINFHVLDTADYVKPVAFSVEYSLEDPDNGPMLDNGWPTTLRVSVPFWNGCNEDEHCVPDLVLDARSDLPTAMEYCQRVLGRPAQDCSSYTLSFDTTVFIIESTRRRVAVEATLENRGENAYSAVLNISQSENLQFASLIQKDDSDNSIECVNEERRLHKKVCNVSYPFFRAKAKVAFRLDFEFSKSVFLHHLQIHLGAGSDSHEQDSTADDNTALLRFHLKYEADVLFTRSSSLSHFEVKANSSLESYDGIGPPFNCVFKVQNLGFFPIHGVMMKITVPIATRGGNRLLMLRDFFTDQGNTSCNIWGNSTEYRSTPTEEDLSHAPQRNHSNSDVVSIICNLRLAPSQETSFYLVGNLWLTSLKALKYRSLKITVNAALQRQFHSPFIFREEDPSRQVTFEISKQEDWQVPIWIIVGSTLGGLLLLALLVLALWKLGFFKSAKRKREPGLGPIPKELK
T2 sequence (P09055 21-798 partner): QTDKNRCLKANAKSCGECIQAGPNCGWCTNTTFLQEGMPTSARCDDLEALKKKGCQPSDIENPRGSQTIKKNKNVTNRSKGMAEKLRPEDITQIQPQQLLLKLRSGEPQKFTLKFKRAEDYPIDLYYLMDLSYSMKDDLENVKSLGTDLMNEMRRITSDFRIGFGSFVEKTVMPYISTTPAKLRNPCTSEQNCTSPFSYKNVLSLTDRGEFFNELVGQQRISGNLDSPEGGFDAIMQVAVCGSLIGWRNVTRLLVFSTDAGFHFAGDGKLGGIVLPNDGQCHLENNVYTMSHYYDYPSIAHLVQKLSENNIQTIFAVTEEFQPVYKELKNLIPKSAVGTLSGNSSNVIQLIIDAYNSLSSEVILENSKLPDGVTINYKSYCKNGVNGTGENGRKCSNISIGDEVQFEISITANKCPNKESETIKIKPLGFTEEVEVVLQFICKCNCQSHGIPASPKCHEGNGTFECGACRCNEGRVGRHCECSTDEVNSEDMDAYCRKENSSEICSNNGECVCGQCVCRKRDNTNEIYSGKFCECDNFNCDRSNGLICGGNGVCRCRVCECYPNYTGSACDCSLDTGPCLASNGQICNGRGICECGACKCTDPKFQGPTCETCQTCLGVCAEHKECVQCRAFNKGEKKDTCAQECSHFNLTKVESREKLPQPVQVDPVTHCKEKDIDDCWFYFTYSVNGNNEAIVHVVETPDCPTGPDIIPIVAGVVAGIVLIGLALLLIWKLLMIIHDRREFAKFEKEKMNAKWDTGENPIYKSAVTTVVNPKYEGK

[4] = system: Precision cut kidney slices (PCKS); assay: Human fibrotic precision cut kidney slices (PCKS) treated with TGF-β1 and PDGFββ, secreted mediators; type: cell-based; settings: increasing antibody doses, dose dependent
Description: Precision cut kidney slices (PCKS) were treated with TGF-β1 and PDGFββ in the presence or absence of Alk5i and increasing doses of anti-α11β1 antibodies. The antibodies provided an inhibition of secreted pro-fibrotic and pro-inflammatory mediators Col1a1 (1994-01-C7 FIG. 2A, 79E3E3 FIG. 2B, and 16E10 FIG. 2C) and IL-11 (1994-01-C7 FIG. 3A, 79E3E3 FIG. 3B, and 16E10 FIG. 3C) in a dose dependent manner.

B1: 1994-01-C7 (#9): anti-α11β1 monoclonal antibody from human phage display; VH SEQ ID NO: 32, VL SEQ ID NO: 37 (antibody, V domains shown)
VH: QVQLVQSGAEVKKPGASVKVSCKASGYTFTSYGISWVRQAPGQGLEWMGWISAYNGNTNYAQKLQGRVTMTTDTSTSTAYMELRSLRSDDTAAYYCARVTGITGTTIDPWGQGTMVTVSS
VL: DIQMTQSPSSLSASVGDRVTITCRASQSISSYLNWYQQKPGKAPKLLIYDASSLESGVPSRFSGSGSGTEFTLTISSLQPDDFAVYYCQQYNNWPQTFGQGTKVEIK
Cross reacts with mouse α11β1 (mouse α11β1): No by SPR | EC50 (CHO-hu α11 [1]): 3 nM | EC50 (Pulmonary Myofibroblast): 3.6 nM | IC50 (CHO-hu α11 [2]): 3.4 nM | Inhibits CHO-α11 mediated collagen gel contraction [3]: Yes | binds cell-mu all (cell-mu all): binds | inhibition of secreted Col1a1 ([4]; FIG. 2): inhibition | inhibition of secreted IL-11 ([4]; FIG. 3): inhibition
